Measured values from publication PMC6345952, “Novel pseudo-aspartic peptidase from the midgut of the tick Rhipicephalus microplus” (Scientific Reports, 2019).

Target: T1, Rhipicephalus microplus pseudo-aspartic peptidase wild type (Rhipicephalus microplus, UniProt A0A411AQW7 21-361)
T1 construct: RmPAP, pseudo-aspartic peptidase of Rhipicephalus microplus (GenBank MH427522); mature RmPAP (R21-K361) without the putative signal peptide M1-A20; lacks the second catalytic Asp (Pro242); Cloned into pET14b with an N-terminal His tag; the primers that fix the construct's limits are in Sup; also called RmPAPWT; RmPAP
T1 sequence: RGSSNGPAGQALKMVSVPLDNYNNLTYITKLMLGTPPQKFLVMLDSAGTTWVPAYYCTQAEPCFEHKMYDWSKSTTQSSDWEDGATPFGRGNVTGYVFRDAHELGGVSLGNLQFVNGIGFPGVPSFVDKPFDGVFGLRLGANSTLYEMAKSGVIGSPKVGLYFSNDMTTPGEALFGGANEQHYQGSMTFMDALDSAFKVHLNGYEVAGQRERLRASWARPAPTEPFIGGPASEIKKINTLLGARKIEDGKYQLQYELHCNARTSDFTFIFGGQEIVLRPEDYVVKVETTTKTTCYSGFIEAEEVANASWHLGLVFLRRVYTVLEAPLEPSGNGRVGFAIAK
Assay: SPR; Biacore T-200; bovine hemoglobin immobilised on a CM5 chip (FC 2) in acetate buffer pH 5.5, BSA on FC 1 as reference; increasing concentrations of RmPAPWT injected in 10 mM phosphate-citrate buffer, pH 4, 0.15 M NaCl, 20 uL/min; steady-state response (FC2 - FC1) fitted
Conditions: both partners purified

B1: bovine hemoglobin (complex)
chain 1: not shown
chain 2: not shown
notes: hemoglobin alpha chain, bovine; hemoglobin beta chain, bovine; the heme groups are not written
Binder B1 has a Kd of 33.5 nM.
